Measured values reported in article PMC9715571 (Cell Research, 2022).

T1: VIRMA^381–1486 (human, UniProt Q69YN4 381-1486)
T1 construct: probably the baculovirus-insect cell system used for the other complexes
T1 sequence (looked up): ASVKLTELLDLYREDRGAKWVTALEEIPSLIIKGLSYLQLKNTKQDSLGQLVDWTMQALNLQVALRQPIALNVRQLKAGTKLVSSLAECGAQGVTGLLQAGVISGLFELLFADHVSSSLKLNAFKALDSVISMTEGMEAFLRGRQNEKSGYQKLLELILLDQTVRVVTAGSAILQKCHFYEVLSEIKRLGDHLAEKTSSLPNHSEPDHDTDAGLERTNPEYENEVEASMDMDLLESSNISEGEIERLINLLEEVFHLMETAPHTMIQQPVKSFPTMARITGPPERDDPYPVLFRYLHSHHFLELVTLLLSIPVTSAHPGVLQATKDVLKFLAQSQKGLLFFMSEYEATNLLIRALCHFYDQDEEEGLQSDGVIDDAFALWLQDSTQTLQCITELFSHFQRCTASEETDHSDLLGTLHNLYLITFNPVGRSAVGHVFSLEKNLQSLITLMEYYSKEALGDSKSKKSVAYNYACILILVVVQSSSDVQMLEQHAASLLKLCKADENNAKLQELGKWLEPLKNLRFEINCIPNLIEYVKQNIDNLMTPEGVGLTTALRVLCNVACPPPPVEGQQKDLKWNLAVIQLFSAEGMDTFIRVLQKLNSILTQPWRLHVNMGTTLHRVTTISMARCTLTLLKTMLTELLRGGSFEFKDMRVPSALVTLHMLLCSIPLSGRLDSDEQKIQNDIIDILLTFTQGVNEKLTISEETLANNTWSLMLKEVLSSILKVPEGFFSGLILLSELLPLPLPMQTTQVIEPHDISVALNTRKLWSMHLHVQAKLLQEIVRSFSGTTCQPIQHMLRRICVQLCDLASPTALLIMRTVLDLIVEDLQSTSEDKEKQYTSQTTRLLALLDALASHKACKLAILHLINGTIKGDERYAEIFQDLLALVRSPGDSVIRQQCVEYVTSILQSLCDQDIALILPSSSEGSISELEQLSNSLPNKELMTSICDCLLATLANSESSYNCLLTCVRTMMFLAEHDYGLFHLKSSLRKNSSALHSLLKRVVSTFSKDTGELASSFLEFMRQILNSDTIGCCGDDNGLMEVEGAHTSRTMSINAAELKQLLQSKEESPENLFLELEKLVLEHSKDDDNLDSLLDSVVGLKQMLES

T2: METTL14 (human, UniProt Q9HCE5 1-456)
T2 construct: METTL14, human; also called MTC core subunit; source: baculovirus-insect cell expression system, co-expressed, purified
T2 sequence (looked up): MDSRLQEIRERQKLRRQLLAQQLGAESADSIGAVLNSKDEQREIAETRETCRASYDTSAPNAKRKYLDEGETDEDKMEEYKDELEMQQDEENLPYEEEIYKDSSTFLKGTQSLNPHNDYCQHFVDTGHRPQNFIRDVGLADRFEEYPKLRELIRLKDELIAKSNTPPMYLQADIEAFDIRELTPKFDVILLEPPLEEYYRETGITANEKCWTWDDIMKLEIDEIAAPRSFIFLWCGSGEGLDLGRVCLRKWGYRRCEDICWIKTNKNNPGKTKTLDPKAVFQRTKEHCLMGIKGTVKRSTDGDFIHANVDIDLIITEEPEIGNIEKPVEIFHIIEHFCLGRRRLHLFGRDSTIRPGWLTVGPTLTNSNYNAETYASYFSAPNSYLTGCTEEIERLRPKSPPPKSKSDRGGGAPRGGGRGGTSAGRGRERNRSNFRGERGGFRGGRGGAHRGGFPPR


Key:
[1] = target: the molecule itself; experiment: cryo-EM structure; METTL3–METTL14–WTAP 1-273–VIRMA 381-1486 complex, gradient fixation, 3.1 Å; only WTAP 171-237 and VIRMA 381-1292 seen
[2] = target: T1, VIRMA^381–1486; experiment: as above; settings: both partners purified
[3] = target: T2, METTL14; experiment: SEC; gel filtration analysis of the purified, co-expressed METTL3–METTL14–WTAP 1-273–VIRMA 381-1486 complex; settings: both partners purified
[4] = target: T3, METTL3 (human, UniProt Q86U44 1-580); experiment: cross-linking; in vitro CXMS of the quaternary M–M–W–V complex with BS3, FDR < 5%; settings: both partners purified
T3 construct: METTL3, human; The same molecule is used for the co-purifications, the gel filtration and the cross-linking; also called MTC core subunit; source: baculovirus-insect cell expression system, co-expressed, purified
T3 sequence (Q86U44 whole entry): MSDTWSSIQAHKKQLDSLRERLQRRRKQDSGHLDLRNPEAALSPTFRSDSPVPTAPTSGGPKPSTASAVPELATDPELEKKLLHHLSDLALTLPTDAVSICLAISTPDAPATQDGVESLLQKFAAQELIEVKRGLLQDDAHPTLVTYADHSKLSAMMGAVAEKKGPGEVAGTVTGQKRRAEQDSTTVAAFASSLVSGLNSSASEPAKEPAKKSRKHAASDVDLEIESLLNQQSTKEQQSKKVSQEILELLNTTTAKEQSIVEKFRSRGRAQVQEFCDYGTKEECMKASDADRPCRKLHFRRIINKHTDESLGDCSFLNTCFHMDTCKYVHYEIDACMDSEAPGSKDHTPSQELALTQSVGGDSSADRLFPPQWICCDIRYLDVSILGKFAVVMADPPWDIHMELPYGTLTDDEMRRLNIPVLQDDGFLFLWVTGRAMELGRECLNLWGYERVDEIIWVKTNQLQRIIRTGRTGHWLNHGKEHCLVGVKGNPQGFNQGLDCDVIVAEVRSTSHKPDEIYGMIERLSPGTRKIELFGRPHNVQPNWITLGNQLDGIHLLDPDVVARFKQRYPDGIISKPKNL

[5] = target: the molecule itself; experiment: crystal structure; WTAP 130-241 alone, 2.40 Å

Row | Binder | stoichiometry N [1] | stoichiometry N [2] | binding result [3] | binding result [4] | stoichiometry N [5]
1 | WTAP^1–273 (domain or fragment, human, UniProt Q15007 1-273, looked up, probably the baculovirus-insect cell system used for the other complexes; also called WTAPA; WTAPB) MTNEEPLPKKVRLSETDFKVMARDELILRWKQYEAYVQALEGKYTDLNSNDVTGLRESEEKLKQQQQESARRENILVMRLATKEQEMQECTTQIQYLKQVQQPSVAQLRSTMVDPAINLFFLKMKGELEQTKDKLEQAQNELSAWKFTPDSQTGKKLMAKCRMLIQENQELGRQLSQGRIAQLEAELALQKKYSEELKSSQDELNDFIIQLDEEVEGMQSTILVLQQQLKETRQQLAQYQQQQSQASAPSTSRTTASEPVEQSEATSKDCSRL | 2 | 2 WTAP:VIRMA | binds | binds | –
2 | WTAP^130–241 (domain or fragment, human, UniProt Q15007 130-241, looked up, WTAP, human, residues 130-241; density assigned for residues 150-241; also called WTAP alone; WTAP^150–241 (assigned density); source: Escherichia coli expression system) QTKDKLEQAQNELSAWKFTPDSQTGKKLMAKCRMLIQENQELGRQLSQGRIAQLEAELALQKKYSEELKSSQDELNDFIIQLDEEVEGMQSTILVLQQQLKETRQQLAQYQQ | – | – | – | – | 2
